Laboratory results reported in publication PMC6177200, “EpCAM ectodomain EpEX is a ligand of EGFR that counteracts EGF-mediated epithelial-mesenchymal transition through modulation of phospho-ERK1/2 in head and neck cancers” (PLoS Biology, 2018).
Values joined by “and” are separate entries in the source; they are usually repeats but may differ in a detail not shown here. Identical values can stand only once. Blank lines part the entries; values can stand above or below the binder they belong to.

What was measured:
[1] = target: T1, EpEX-Fc (extracellular domain of EpCAM fused to the constant region of human immunoglobulin 1) (human), P16422; assay: native gel or EMSA; purified EpEX-Fc in native versus reducing immunoblot experiments with specific antibodies; conditions: remark: other sources report otherwise
T1 chain: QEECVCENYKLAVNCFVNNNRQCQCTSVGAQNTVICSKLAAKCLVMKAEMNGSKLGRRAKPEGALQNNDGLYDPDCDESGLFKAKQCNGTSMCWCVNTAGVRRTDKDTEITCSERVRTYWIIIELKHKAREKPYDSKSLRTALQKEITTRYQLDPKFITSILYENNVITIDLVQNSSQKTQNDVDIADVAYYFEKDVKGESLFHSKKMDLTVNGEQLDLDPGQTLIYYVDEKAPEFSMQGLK

[2] = target: T2, EpEX (extracellular domain of EpCAM, aa 24-265), recombinant (human), P16422; assay: cross-linking; BS3 cross-linker (3.6 μg, 30 min, 37 °C); EpEX and EGF 250 pmol, EGFRex 50 pmol in 9 μl of 20 mM HEPES pH 8.0, 100 mM NaCl, 1 hr at 37 °C before; EGF added where indicated; conditions: remark: other sources report otherwise
T2 chain: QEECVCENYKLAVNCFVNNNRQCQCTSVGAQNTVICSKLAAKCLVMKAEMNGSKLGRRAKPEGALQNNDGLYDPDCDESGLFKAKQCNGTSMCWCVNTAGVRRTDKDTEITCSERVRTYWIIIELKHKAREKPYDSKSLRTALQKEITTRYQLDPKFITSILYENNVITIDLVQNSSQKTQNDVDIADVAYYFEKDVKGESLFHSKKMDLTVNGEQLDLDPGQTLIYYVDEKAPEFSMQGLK

[3] = target: epidermal growth factor receptor (EGFR), endogenous full-length (human (endogenous in FaDu, Cal27, HCT8), UniProt P00533 25-1210); assay: cell-based or functional assay
[4] = target: T3, EGFRex (extracellular domain of EGFR, aa 25-642) (UniProt P00533 25-642); assay: cross-linking; BS3 cross-linker (3.6 μg, 30 min, 37 °C); EpEX and EGF 250 pmol, EGFRex 50 pmol in 9 μl of 20 mM HEPES pH 8.0, 100 mM NaCl, 1 hr at 37 °C before; EGF added where indicated; conditions: both partners purified
T3 construct: extracellular domain of epidermal growth factor receptor, aa 25-642; source: expressed and purified as reported [118]

stoichiometry N [1]: 2 and 3
B1: EpEX-Fc (extracellular domain of EpCAM fused to the constant region of human immunoglobulin 1), P16422 24-265 (Fc fusion)
chain: QEECVCENYKLAVNCFVNNNRQCQCTSVGAQNTVICSKLAAKCLVMKAEMNGSKLGRRAKPEGALQNNDGLYDPDCDESGLFKAKQCNGTSMCWCVNTAGVRRTDKDTEITCSERVRTYWIIIELKHKAREKPYDSKSLRTALQKEITTRYQLDPKFITSILYENNVITIDLVQNSSQKTQNDVDIADVAYYFEKDVKGESLFHSKKMDLTVNGEQLDLDPGQTLIYYVDEKAPEFSMQGLK
modifications: here or on the partner: N-glycosylated; N-glycosylated

stoichiometry N [2]: 2
B2: EpEX (extracellular domain of EpCAM, aa 24-265), recombinant, P16422 24-265 (domain or fragment)
chain: QEECVCENYKLAVNCFVNNNRQCQCTSVGAQNTVICSKLAAKCLVMKAEMNGSKLGRRAKPEGALQNNDGLYDPDCDESGLFKAKQCNGTSMCWCVNTAGVRRTDKDTEITCSERVRTYWIIIELKHKAREKPYDSKSLRTALQKEITTRYQLDPKFITSILYENNVITIDLVQNSSQKTQNDVDIADVAYYFEKDVKGESLFHSKKMDLTVNGEQLDLDPGQTLIYYVDEKAPEFSMQGLK

increase in cell numbers of serum-starved FaDu cells after 72 hr with high-dose EpEX (10 nM); blocked by Cetuximab [3]: 1.5 fold
increase in cell numbers of serum-starved Kyse30 cells after 72 hr with EpEX-Fc (1 and 10 nM; low dose without significant effect); blocked by Cetuximab [3]: 2 fold
pERK1/2 by immunofluorescence in cells treated for 30 min with EpEX-Fc (10 nM) compared to EGF (9 nM) [3]: 3 fold
B3: EpEX-Fc (extracellular domain of EpCAM fused to the constant region of human immunoglobulin 1) (Fc fusion, UniProt P16422 24-265, looked up)
chain: QEECVCENYKLAVNCFVNNNRQCQCTSVGAQNTVICSKLAAKCLVMKAEMNGSKLGRRAKPEGALQNNDGLYDPDCDESGLFKAKQCNGTSMCWCVNTAGVRRTDKDTEITCSERVRTYWIIIELKHKAREKPYDSKSLRTALQKEITTRYQLDPKFITSILYENNVITIDLVQNSSQKTQNDVDIADVAYYFEKDVKGESLFHSKKMDLTVNGEQLDLDPGQTLIYYVDEKAPEFSMQGLK
modifications: N-glycosylated

stoichiometry N [4]: 1 EpEX per EGFRex and 2 EpEX per EGFRex
B4: EpEX (extracellular domain of EpCAM, aa 24-265), recombinant (domain or fragment, human, UniProt P16422 24-265, looked up)
chain: QEECVCENYKLAVNCFVNNNRQCQCTSVGAQNTVICSKLAAKCLVMKAEMNGSKLGRRAKPEGALQNNDGLYDPDCDESGLFKAKQCNGTSMCWCVNTAGVRRTDKDTEITCSERVRTYWIIIELKHKAREKPYDSKSLRTALQKEITTRYQLDPKFITSILYENNVITIDLVQNSSQKTQNDVDIADVAYYFEKDVKGESLFHSKKMDLTVNGEQLDLDPGQTLIYYVDEKAPEFSMQGLK
notes: extracellular domain of EpCAM, aa 24-265; also called purified recombinant EpEX; source: Sf9 insect cells, purified as described [47]
